# From PMC6326814
# How the values were obtained:
# [1] = molecular target: BbvCI R2 subunit, wild type (Geobacillus brevis); assay: SEC; purified enzyme at pH 7.5 (pH of the storage buffer); sample with 1:1 subunits by Supplementary Figure S1
# [2] = molecular target: BbvCI R2 subunit, wild type (Geobacillus brevis); assay: crystal structure; crystal form 1, grown from the purified enzyme with dsDNA oligos against 0.8 M ammonium sulfate, 100 mM sodium acetate pH 4.5, 2 mM CaCl2; only R2 in the crystal
stoichiometry N [1],stoichiometry N [2],Substance
1 R1:R2,–,"BbvCI R1 subunit, wild type (enzyme)"
–,2,"BbvCI R2 subunit, wild type (enzyme)"
